# According to patent US20230002728A1, “STEM CELL FATE ENGINEERING METHODS” (Wisconsin Alumni Research Foundation, priority 2021, published 2023):
# Key:
# Assay type in all cases: cell-based, human
# [1] = system: H9 hESC-derived cardiac progenitor cells (CPCs); test: Localized EpiC differentiation of hPSC-derived cardiac progenitors on morphogen droplets (WT1 immunostaining); details: droplets on TC-coated PS plate, 7d after cardiac progenitor seeding
# Protocol: For localized EpiC differentiation, BMP4 (2 ng/μl)+Wnt3a (40 ng/μl) solution was placed in PDMS stencil masks either on a TC-treated plate or an ibidi 35 mm polymer dish. Matrigel® coating was performed as described above. Cryopreserved CPCs were thawed and seeded at 500,000-550,000 cells/cm^2 in LaSR medium (advanced DMEM/F12 (Gibco, 12634-010) supplemented with 60 μg/ml ascorbic acid (Sigma, A8960) and 2.5 mM Glutamax (Gibco, 35050-061)) supplemented with 5 μM Y-27632). Medium was changed daily with fresh LaSR medium until analysis. Time lapse imaging of CPCs derived from H9-hTNNT2-GFP hESC during localized EpiC differentiation was performed using a fluorescence microscope equipped with a heating stage top incubator. 18 days after CPC seeding, cells cultured on an ibidi polymer dish were immunostained and imaged using a confocal microscope (Nikon, A1R-SI+) for the analysis of sarcomere structure.
# Spatial organization of cell fate commitment is important throughout development. […] These cardiac progenitors can further differentiate into CMs without any specific external signaling factors and can also differentiate into EpiCs upon activation of canonical Wnt signaling (Bao et al. (2016) Nature biomed. Eng. 1, 1-12).
# [2] = system: H9 hESCs; test: Localized cardiomyocyte differentiation on BMP4 patterns (cTnT immunostaining, day 8); details: 2.5 ng/μl BMP4 pattern, 5 μM IWP2 at day 3, day 8
# Protocol: For localized cardiomyocyte (CM) differentiation, 2.5 ng/μl BMP4 solution was placed in PDMS stencil masks on a TC-treated plate. Matrigel® coating and hPSC seeding was performed as described above. At day 1 and day 2, medium was changed with fresh RPMI B27−. Afterwards, CM differentiation was performed based on the GiWi protocol (Lian et al. (2013) Nature protocols 8, 162-175). At day 3, cells were treated with 5 μM IWP2 in fresh RPMI B27−. At day 5, medium was changed with fresh RPMI B27−. At day 7, medium was changed with fresh RPMI B27+. At day 8, a beating phenotype of patterned CM derived from H9-hTNNT2-GFP hESC was recorded using a fluorescence microscope (Nikon, Eclipse Ti2-E) equipped with a heating stage top incubator (Tokai Hit, Tokai Hit STX Series Stage Top Incubator System). Cells were also immunostained for analysis at day 8.
# Based on the results showing localized mesoderm differentiation on BMP-patterned substrates, mesodermal cells were examined to see if they could be further differentiated on these patterns into cardiomyocytes, a specialized mesodermal cell type. BMP4 patterns were used to direct mesoderm and Wnt inhibition by addition of IWP2 to the culture medium at day 3 to specify cardiac mesoderm and achieve patterned CM differentiation (FIG. 4A). The H9-hTNNT2-GFP hESC reporter line was used to visualize patterning of CMs in live cells. […]
# [3] = system: H9 hESCs; test: Localized mesendoderm differentiation of hPSCs on adsorbed BMP4 patterns (BRACHYURY immunostaining, day 2); details: for mesendoderm differentiation (BRA expression): two days in mTeSR1
# Protocol: […] For glass surfaces, 1.5 ng/μl BMP4 solution was used. 5 ng/μl noggin solution was placed as a droplet to show an inhibitory effect of noggin on BMP4-induced mesendoderm differentiation. After washing, substrate was coated with Matrigel® for 2 hours as described above. Glass was coated with Matrigel® overnight. 0.025 mg/ml Synthemax (Corning, 3535) (final concentration, diluted in water) was added to a washed TC-treated plate and the plate was incubated for 2 hours at room temperature prior to cell seeding. 5 μg/ml truncated recombinant human vitronectin (Gibco, A14700) diluted in PBS was added to a washed TC-treated plate and the plate was incubated for 1 hour at room temperature prior to cell seeding. After ECM coating, the ECM solution was aspirated and hPSCs were singularized using Accutase (10 min incubation at 37° C.), resuspended in mTeSR1 supplemented with 5 μM Y-27632, and seeded at 5×10^5 to about 1×10^6 cells/cm^2 on coated substrates (day 0). On the next day (day 1), medium was changed with fresh mTeSR1. […]
# For immunostaining of other protein markers, cells were fixed in 4% paraformaldehyde (Electron Microscopy Sciences, 15710-S) in PBS for 15 min at room temperature, washed with PBS three times, and incubated in diluted primary antibodies in 5% nonfat dry milk (Santa Cruz Biotechnology, sc-2324)/0.4% Triton X-100 (Fisher Scientific, BP151-500) PBS overnight at 4° C. […] After secondary antibody staining, the cells were washed with PBS three times, incubated in 2 μg/ml Hoechst 33342 diluted in PBS for 5 min at room temperature, washed with PBS two times, and analyzed under the fluorescence microscope. […]
# Next, BMP4 solution was placed on TC-treated plates in various patterns (droplet, letters, circle, heart, and star), and hPSCs seeded onto the substrate in mTeSR1 maintenance medium. […] Since the presence of inhibitory morphogens is also important in developmental patterning, a BMP inhibitor, noggin, was evaluated for antagonism to localized BMP4-induced mesendoderm differentiation. […]
molecule,measurement,setting,value
"BMP4: human recombinant BMP4 (Invitrogen, PHC9534), morphogen adsorbed on the substrate (protein, UniProt P12644 293-408, looked up) Bone morphogenetic protein 4: SPKHHSQRARKKNKNCRRHSLYVDFSDVGWNDWIVAPPGYQAFYCHGDCPFPLADHLNSTNHAIVQTLVNSVNSSIPKACCVPTELSAISMLYLDEYDKVVLKNYQEMVVEGCGCR",EpiC differentiation (WT1 expression),[1],limited if any EpiC differentiation
same,cardiomyocyte differentiation (cTnT),[2],localization of CMs to the patterned area
same,mesendoderm differentiation (BRA expression),"[3]; BMP4 droplets adsorbed on TC-treated PS, Matrigel coating",induced localized mesendoderm differentiation
same,mesendoderm differentiation (BRA expression),[3]; BMP4 droplets adsorbed on untreated PS surface,none of the BMP4 droplets induced mesendoderm differentiation
same,cell attachment on the patterned area,"[3]; untreated PS surface, 0.1, 0.2, and 2.5 ng/ul BMP4 droplets",partially or fully inhibited cell attachment
